assay: soluble on expression in E. coli; label from the status in PepcDB or PDB records

Soluble on expression in E. coli, soluble:
MELGKQRPVVYVVSDSVGETAELVVKAAASQFSGAGIEVRRIPYVEDKETVDEVIQLAKQADAIIAFTLVVPGIRTYLLEKATEAKVETVDIIGPMLEKISSLTKEEPRYEPGIVYRLDEDYFRKVEAIEFAVKYDDGRDPRGIVRADLVLIGVSRTSKTPLSQYLAHKRLKVANVPLVPEVEPPEELFKLSPKKVIGLKISPEQLNGIRAERLKTLGLKSQANYANIDRIKEELAYAEGIMKRIGCPVIDVSNKAVEETANLISSMFQKMAGDPLEHHHHHH, MELIRFSISIPSKLLEKFDQIIEEIGYENRSEAIRDLIRDFIIRHEWEVGNEEVAGTITIVYNHDEGDVVKALLDLQHEYLDEIISSLHVHMDEHNCLEVIVVKGEAKKIKMIADKLLSLKGVKHGKLVMTSTGKELV, MELKNSISDYTETEFKKIIEDIINCEGDEKKQDDNLEHFISVTEHPSGSDLIYYPEGNNDGSPEAVIKEIKEWRAANGKSGFKQG, MELRVGNRYRLGRKIGSGSFGDIYLGTDIAAGEEVAIKLECVKTKHPQLHIESKIYKMMQGGVGIPTIRWCGAEGDYNVMVMELLGPSLEDLFNFCSRKFSLKTVLLLADQMISRIEYIHSKNFIHRDVKPDNFLMGLGKKGNLVYIIDFGLAKKYRDARTHQHIPYRENKNLTGTARYASINTHLGIEQSRRDDLESLGYVLMYFNLGSLPWQGLKAATKRQKYERISEKKMSTPIEVLCKGYPSEFATYLNFCRSLRFDDKPDYSYLRQLFRNLFHRQGFSYDYVFDWNMLKFGASRAADDAERERRDREERLRH, MELSEPLENYLKEIYEIELLKGYARVSDLILAFNVSPGTVSKALEKLEKIGLIERDNKKIKLTAEGKKIAEKLIRAHRLSERLLTDIIGLDWIRAHQLAHRLEHIWPEDVVDKIDELLGKPLTCPHGHPIPGREVKVNGIKLSEAECNKKYKVIMIIREEEWILSMADELNIKPGVEIKLIKKNENDFVIEIDNKKESIPKALAEEVLVSE, MENIFLKRLEFKAFEEDSVFSKIEGLNKFNSLNFKKPITFFSGENGTGKSTLLEAIAVNWGFNPEGGSINFNFSTKDTHLDLHNYLTVGKSVKRATDGFFLRAESFYNVATYAENIDLDFSEYGDKSLHHQSHGESFLNLVNHRFRGNGLYLLDEPEAALSPQRQLALMISIKKLIDEGSQFIIVSHSPILLAMPDSQIISFDKDSPLEITYEESMPYEITSLFLNNKNRILSHLFAELEHHHHHH, MEQAMLKTLALLVLGMHYWCATGFPVYDYDPSSLQEALSASVAKVNSQSLSPYLFRATRSSLKRVNVLDEDTLVMNLEFSVQETTCLRDSGDPSTCAFQRGYSVPTAACRSTVQMSKGQVKDVWAHCRWASSSESNSSEEMMFGDMARSHRRRNDYLLGFLSDESRSEQFRDRSLEIMRRGQPPAHRRFLNLHRRARVNSGFE, MEQIGLIGYGSMADMIARQLLKHEQIKENELFIETRTKGERLRALMSDYPNVSADPLENWANTCQLILICVPPLHVIETMRRLYPYVNRNTHIVSIAAGVPLRLLEAETEAGISRVIPAITSEAEAGISLVVHSEALAAEKKERLNELLSVFSRVREIKESNLDVASNLTSSAPGFIAAIFEELALSAVRNSSLSKEEAFDFLIHSLYGTGKMLIEKNMSFEETLERVATKGGITGEGAEVIHASVPDVFDEVFERTLRKYELLTEQVGKQTLEHHHHHH, MEQIHGGDSNSGGGGGGSSRNDEISVTRASRFDALPEDCISKVISHTSPRDACVVASVSKSVKSAAQSDLVWEMFLPSEYSSLVLQSANHLSKKEIFLSLADNSVLVENGKKSFWVEKASGKKCYMLSAMELTIIWGDSPAYWKWITVPESKFEKVAELRNVCWFEVRGKISCGMLSKGTHYSVYVVFKTANGRSYGFDLVPVEAGVGFVGKVATKKSVYFESGNADSRSATSHYSGISEEEEEVEGERERGMNVVGPKERVDGWSEVELGKFYINNGGCGDDGSDEIEISIMETQNGNWKSGLIIQGIEIRPERSN, MEQQNTLNDIKQTIVFNASIQKVWSVVSTAEGIASWFMPNDFVLEVGHEFHVQSPFGPSPCKVLEIDEPNHLSFSWDTDGWVVSFDLKDLGDNKTEFTLIHGGWKHPDEILPKANAKSSIIRDRMSGGWVAIVNEKLKKVVEG, MEQTLRVSVFGATGYTGIELLRSLLTHPHFEVKNLISQSYKGKKVREVLPFFSNTYISEIEFLEEPVEDYELAFLCLPHEVSYEIVPKLLSQGKKVVDLSGAYRIKSPKAYEEFYGFKHEREDILQRAVYGLPEVFREEIKNSDLVANPGCYPTATLLAIYPFLKERVGIESVIVHALSGVSGAGRKPKQQFHFPEMTENFFNYAVEKHRHTPEMEDVIRRVYGREVKVRFTPTVVPTSRGMISTVYLKSEKLNVKELFKEVYEDEIFVKVVDEPPQTKWVLGTNYCFIYPHYDERTGYYVIISAIDNLGKGASLQAVQNANLMFGLAEDDGLLQLPVFP, MERNKLARQIIDTCLEMTRLGLNQGTAGNVSVRYQDGMLITPTGIPYEKLTESHIVFIDGNGKHEEGKLPSSEWRFHMAAYQSRPDANAVVHNHAVHCTAVSILNRSIPAIHYMIAAAGGNSIPCAPYATFGTRELSEHVALALKNRKATLLQHHGLIACEVNLEKALWLAHEVEVLAQLYLTTLAITDPVPVLSDEEIAVVLEKFKTYGLAIEE

Soluble on expression in E. coli, not soluble:
MELDLISYELDEKTKEGIEKVVEKFFTKAEPDLVLIFDKAGRILACKGMDISDTYSEFISSILSALFFASEELTSMLDKNDEMKDVFYETKNRVFLMARLEKDFLIGVISRKNLSLGSIRLFFNHLVSDLNAVLKNLKEVEKKSLKISKEELKKKLDQILGS, MENCPLVSVIVCAYNAEQYIDESISSIINQTYENLEIIVINDGSTDLTLSHLEEISKLDKRIKIISNKYNLGFINSLNIGLGCFSGKYFARMDADDIAKPSWIEKIVTYLEKNDHITAMGSYLEIIVEKECGIIGSQYKTGDIWKNPLLHNDICEAMLFYNPIHNNTMIMRANVYREHKLIFNKDYPYAEDYKFWSEVSRLGCLANYPEALVKYRLHGNQTSSVYNHEQNETAKKIKRENITYYLNKIGIDIKVINSVSLLEIYHVDKSNKVLKSILYEMYMSLDKYTITSLLHFIKYHLELFDLKQNLKIIKKFIRKINVIF, MENSEKLANSKEVIAYIAERFPKCFILEGEAKPLKIGIFQDLAERLSDDPKVSKTQLRAGLRQYTSSWRYLHGVKPGASRVDLDGNPCGELEEEHIEHAKATLEESKAKVATRRKEQAKKAREEAKAKKTARAATPPKRRPQPAAKKVEQPVETRALNADEITVGNNVSVNMGKGNMPATIVEINKDDVRIRLSNGLQMVVKAENLRS, MEPLKHECGIAMVRLRKPLSYYHDKYGTWMYGLNKLYLLMEKQHNRGQEGAGLAVVKLNSRPGEEYLFRERALGANAISEIFDSVHKDFQAYSREELGDAEFAASQIPYAGECYMGHLRYSTTGKSGLTFVHPMIRRSNWRAKCLSICGNFNLTNVDGIFDEITSVGQHPRNMSDTHILLEQIGHRLDREVERLFRIGKEQNLKGMDITHFIEERIDLSNVLKKCSPFWDGGYVMCGLTGSGESYAVRDPWGIRPAFYYIDDEIVVTASERPVIQTVMNLSAEAVRELMPGEAIFVNSKGEPRIERILETKNYQACSFERIYFSRGSDQDIYRERKALGYLLSERILRAIDYDISHTVFSFIPNTAEVAYYGMLEGIDHYLDECKIREIRENPNMSEAKLREILGRKVRSEKVAIKDIKLRTFITEGNSRNDLAAHVYDITYGTVQAGVDNLVVIDDSIVRGTTLRQSIIGIMDRLQPKKIVIVSSSPQIRYPDYYGIDMRKMREFVAFRSAVALLQERGMEQVLHDAYAKALELRKLSSGQEVENVVKTIYKPFTAEEISAKMVELLKPEGVRAKVEIVYQSLEGLHQAIPNHPGDWYFSGDYPTPGGAHLVNEAFISYMEEDYGK, MEPVLFYGVPHGCSFGSIVALEWLGRPYRLCRIEMPLDTGERTYVRLNPARQTPTLLLEDGRALSESLAILQHLAARDLCRKLGYPQGSAEFDELNFALALLHTECHSAWGALFYLEDADATTTARALTRAARAYGRIDKLLGDRKWLAGEGPSVADAYLAGTARWGRELGYFDLQHDFPRLHRHLEKLEQDPAVRFAHAIEDRLPAQSCGEFRGEVTLAEVASRLLA, MEPWLVGIDLGGTTIKMAFVTTEGDIVHKWEIPTNTANRGEHIVADIARSLEKTLGQLGGAKERLLAAGIGAPGPVEEETGMLYETVNIGWTNYPLKQRLEEATGLPVSVDNDANLAALGEMWKGAGGGARHLLFVTLGTGVGGGVIANGAIVRGINGAGGEIGHMTMIPDGGARCNCGKTGCLETIASATGIVRIAKEKLTADERPSELRNGDVTAKAVFDAAKAGDALALEVVDEATYYLGWALANAANVTNPEKIVIGGGVSKAGDMLVERVAAHFRRFAFPRVAAGAKLVLATLGNDAGVIGAAWLAKELVGA, MERNYEESALFEHQFWLKVLTDHSQFLLDALAPKEKEDIKKATYFVETFTNLLNKVRNVNLIAFSKEAERAAKEIRTFKLSIIQKQLEGKITIHFTPTFINHMVNEVEEYITVLEFLNKGEVPPVFHELHYHLVWLTDAAGHAGSISGGLDLVEKRLKEKSEEFTKHFEQFYLKAVEMTGYLRTELHHFPALKKFTKDVSLELKLFSHFLHEVEELELSNEILSALSARMADHMAREECYYLLKLAQSSGLEMPKCNPL

— the DeepSol protein solubility set
